Test results reported in patent US20100260765A1 (AstraZeneca / MedImmune, published 2010).

Legend:
Test in all cases: cell-based or functional assay
[1] = target: T1, KDR (human, UniProt P35968 20-1356)
[2] = target: T1, KDR; remark: listed apart in the source
[3] = target: T1, KDR; remark: listed apart in the source
[4] = target: T1, KDR; remark: listed apart in the source
[5] = target: T1, KDR; remark: listed apart in the source

T1 sequence (P35968 20-1356): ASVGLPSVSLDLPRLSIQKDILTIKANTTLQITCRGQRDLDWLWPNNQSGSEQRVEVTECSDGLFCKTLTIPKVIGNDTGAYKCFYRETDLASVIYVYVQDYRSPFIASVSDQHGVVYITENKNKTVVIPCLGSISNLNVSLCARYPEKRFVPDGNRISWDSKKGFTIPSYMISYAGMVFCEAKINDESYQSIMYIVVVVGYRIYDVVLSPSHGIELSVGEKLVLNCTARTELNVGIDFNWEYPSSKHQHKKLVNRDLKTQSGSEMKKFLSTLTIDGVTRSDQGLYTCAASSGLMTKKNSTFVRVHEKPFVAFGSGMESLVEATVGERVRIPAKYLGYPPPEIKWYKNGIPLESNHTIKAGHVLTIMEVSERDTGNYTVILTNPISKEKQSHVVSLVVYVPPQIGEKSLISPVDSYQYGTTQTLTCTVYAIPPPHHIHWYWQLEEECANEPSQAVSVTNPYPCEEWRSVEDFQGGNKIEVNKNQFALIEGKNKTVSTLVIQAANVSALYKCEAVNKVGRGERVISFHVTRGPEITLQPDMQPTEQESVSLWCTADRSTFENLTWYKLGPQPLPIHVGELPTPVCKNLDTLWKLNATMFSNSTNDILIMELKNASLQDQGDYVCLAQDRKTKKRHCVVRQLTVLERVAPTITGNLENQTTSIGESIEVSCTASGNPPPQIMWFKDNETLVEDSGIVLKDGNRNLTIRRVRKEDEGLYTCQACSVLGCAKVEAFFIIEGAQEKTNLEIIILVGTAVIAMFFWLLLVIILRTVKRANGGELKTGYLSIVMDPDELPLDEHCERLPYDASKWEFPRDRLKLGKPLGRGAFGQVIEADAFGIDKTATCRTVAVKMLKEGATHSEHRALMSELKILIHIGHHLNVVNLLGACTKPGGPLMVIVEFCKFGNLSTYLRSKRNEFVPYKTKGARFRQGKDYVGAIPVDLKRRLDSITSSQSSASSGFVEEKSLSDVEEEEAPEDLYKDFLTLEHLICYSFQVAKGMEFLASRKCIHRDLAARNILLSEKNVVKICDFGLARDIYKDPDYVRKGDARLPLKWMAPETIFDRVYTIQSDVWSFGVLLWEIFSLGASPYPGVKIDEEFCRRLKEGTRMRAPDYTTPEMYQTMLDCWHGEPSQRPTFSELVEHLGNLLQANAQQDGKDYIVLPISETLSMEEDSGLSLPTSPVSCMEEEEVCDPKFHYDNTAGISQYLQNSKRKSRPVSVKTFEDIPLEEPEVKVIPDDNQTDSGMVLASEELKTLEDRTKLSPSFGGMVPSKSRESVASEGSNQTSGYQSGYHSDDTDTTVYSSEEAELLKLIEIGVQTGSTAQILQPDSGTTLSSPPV

Row | % Inhibition of VEGF165-mediated 6-keto Prostaglandin F1α release at 133 nM Antibody Concentration, Average [1] [%] | % Inhibition of VEGF165-mediated 6-keto Prostaglandin F1α release at 133 nM Antibody Concentration, N = 1 [1] [%] | % Inhibition of VEGF165-mediated 6-keto Prostaglandin F1α release at 133 nM Antibody Concentration, N = 2 [1] [%] | % of Max VEGF KDR pTyr Activity (at 133 nM antibody concentration), Average [2] [%] | % of Max VEGF KDR pTyr Activity (at 133 nM antibody concentration), N = 1 [2] [%] | % of Max VEGF KDR pTyr Activity (at 133 nM antibody concentration), N = 2 [2] [%] | Activity at 133 nM (% Inhibition), 24-hour Pre-incubation at 37° C., Average [3] [%] | Activity at 133 nM (% Inhibition), 24-hour Pre-incubation at 37° C., N = 1 [3] [%] | Activity at 133 nM (% Inhibition), 24-hour Pre-incubation at 37° C., N = 2 [3] [%] | Activity at 133 nM (% Inhibition), 1-hour Pre-incubation at 4° C., Average [5] [%] | Activity at 133 nM (% Inhibition), 1-hour Pre-incubation at 4° C., N = 1 [5] [%] | Activity at 133 nM (% Inhibition), 1-hour Pre-incubation at 4° C., N = 2 [5] [%] | Binder | Activity at 133 nM Antibody Concentration (% Survival Inhibition), Average [4] [%] | Activity at 133 nM Antibody Concentration (% Survival Inhibition), N = 1 [4] [%] | Activity at 133 nM Antibody Concentration (% Survival Inhibition), N = 2 [4] [%]
1 | 88 | 54 | 121 | 19 | 22 | 17 | 9 | 19 | 0 | 67 | 63 | 72 | 27A3 (antibody, V domains shown) VH: QLQLQESGPGLVKPSETLSLTCTVSGGSISSRSDYWGWIRQPPGKGLEWIGTIYYSGDTYYNPSLKSRVTISVDTSKNQFSLKLSSVTAADTAVYYCARQQLVLYYFDYWGQGTLVTVSS VL: EIVLTQSPGTLSLSPGERATLSCRASQSVSSSYLAWYQQKPGQAPRLLIYATSNRATGIPDRFSGSGSGTDFTLTISRLEPEDFAVYYCQQHGSSPPLTFGGGTKVEIK | 83 | 86 | 81
2 | 84 | 56 | 111 | 18 | 19 | 17 | 8 | 19 | -4 | 65 | 60 | 69 | 27D10 (antibody, V domains shown) VH: QLQLQESGPGLVKPSETLSLTCTVSGGSISSRSDYWGWIRQPPGKGLEWIGTIYYSGSTFYNPSLKSRVTISVDTSKNQFSLKLSSVTAADTAVYYCARQQLVLYYFDYWGQGTLVTVSS VL: not shown | 76 | 84 | 68
3 | 33 | 5 | 61 | 15 | 16 | 13 | -1 | -3 | 2 | 26 | 21 | 31 | 21H9 (antibody, V domains shown) VH: QVPLVESGGGVVQPGRSLRLSCAASGFTFSSYGMHWVRQAPGKGLEWVAVIWYDGSNKYYADSVQGRFTISRDNSKNTLYLQMNSLRAEDTAVYYCARGVTMVRGLIIARYYYGLDVWGQGTTVTVSS VL: DIVMTQTPLSSPVTFGQPASISCRSSQSLVHSDGNTYLSWLQQRPGQPPRLLIYKISNRFFGVPDRFSGSGAGTDFTLKISRVEAEDVGLYYCMQSTQFPLTFGGGTKVEIK | -18 | -20 | -16
4 | 142 | 106 | 178 | 8 | 6 | 10 | 67 | 45 | 88 | 80 | 78 | 83 | 33C3 (antibody, V domains shown) VH: QVQLVESGGGLVKPGESLRLSCAASGFTFSDYYMSWIRQAPGKGLEWVSYISHGGSTIYYADSVKGRFTISRDNAKNSLYLQMNSLRVEDTAVYFCARDDFWSGYYFNWFDPWGQGALVTVSS VL: DIQMTQYPLSLSASVGDRVTITCRASQSISSFLNWYHQKPGKAPKLLIYGTSSLQSGVPSRFSGSGSGTDFTLTISSLQPEDFATYYCQQTYSIPLTFGGGTNVEIK | 103 | 104 | 102
5 | 19 | 1 | 38 | 16 | 19 | 12 | 26 | 23 | 30 | 44 | 36 | 52 | 29F7 (antibody, V domains shown) VH: QVQLVQSGAEVKKPGASVKVSCKASGYTFTSYDINWVRQATGQGLEWMGWMNPNSGKTGYAQKFQGRVTMTRSTSISTAYMELSSLRSEDTAVYYCARGGYSNLGWFDPWGQGTLVTVSS VL: DIQMTQSPSSVFASVGDRVTITCRASQGISTWLAWYQQKPGKAPKFLIYAASSLQSGVPSRFSGSGSGTDFTLTISSLQPDDFATYYCQQANNFPFTFGPGTKVDIK | -12 | 3 | -27
